One substance from patent US11905525B2, “Reduction of elimination of immune responses to non-intravenous, e.g., subcutaneously administered therapeutic proteins” (ModernaTX, Inc., priority 2017, dated 2024) can be followed below.

This data set deals with accelerated blood clearance (ABC). Kind of data set: Accelerated blood clearance (ABC) upon subsequent administration of LNP with a B cell targeting agent. Type of data set: in vivo. The note with it: combination with the LNP.

For “Rituximab: monoclonal antibody against the protein CD20”, the “ABC upon subsequent administration of LNP” value was “significantly reduced ABC”.
